Results reported in patent US20190382481A1 (Janssen / Centocor, published 2019).
Changes are numbered by the printed parent chain.

B1: C33B48.CLF (antibody, human IgG1, lambda)
heavy: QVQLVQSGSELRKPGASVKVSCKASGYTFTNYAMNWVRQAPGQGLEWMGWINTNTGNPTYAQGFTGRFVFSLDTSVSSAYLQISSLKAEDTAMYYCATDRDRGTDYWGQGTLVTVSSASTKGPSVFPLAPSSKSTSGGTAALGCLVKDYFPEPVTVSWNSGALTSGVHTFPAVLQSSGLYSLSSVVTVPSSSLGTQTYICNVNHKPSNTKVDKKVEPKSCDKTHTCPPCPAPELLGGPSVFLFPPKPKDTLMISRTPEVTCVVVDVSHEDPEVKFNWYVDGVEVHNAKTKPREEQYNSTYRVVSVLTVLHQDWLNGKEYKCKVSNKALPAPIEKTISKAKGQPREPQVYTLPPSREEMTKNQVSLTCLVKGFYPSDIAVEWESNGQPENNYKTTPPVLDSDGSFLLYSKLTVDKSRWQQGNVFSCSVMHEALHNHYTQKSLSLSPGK
light: QSALTQPASVSGSPGQSITISCTGTSSDVGDYNYVSWYQQHPGKVPKLMIYDVSNRPSGVSNRFSGSMSGNTASLTISGLQAEDEADYYCSSYSSSSALEVFGGGTKLTVLGQPKAAPSVTLFPPSSEELQANKATLVCLISDFYPGAVTVAWKADSSPVKAGVETTTPSKQSNNKYAASSYLSLTPEQWKSHRSYSCQVTHEGSTVEKTVAPTECS
modifications: IgG1 low fucose Fc glycan
B2: C3CB7 (bispecific antibody, human IgG4 S228P, lambda, F234A L235A)
heavy 1: not shown
light 1: B1 light
heavy 2: EVQLVESGGGLVQPGGSLRLSCAASGFTFNTYAMNWVRQAPGKGLEWVARIRSKYNNYATYYAASVKGRFTISRDDSKNSLYLQMNSLKTEDTAVYYCARHGNFGNSYVSWFAYWGQGTLVTVSSASTKGPSVFPLAPCSRSTSESTAALGCLVKDYFPEPVTVSWNSGALTSGVHTFPAVLQSSGLYSLSSVVTVPSSSLGTKTYTCNVDHKPSNTKVDKRVESKYGPPCPPCPAPEAAGGPSVFLFPPKPKDTLMISRTPEVTCVVVDVSQEDPEVQFNWYVDGVEVHNAKTKPREEQFNSTYRVVSVLTVLHQDWLNGKEYKCKVSNKGLPSSIEKTISKAKGQPREPQVYTLPPSQEEMTKNQVSLTCLVKGFYPSDIAVEWESNGQPENNYKTTPPVLDSDGSFLLYSKLTVDKSRWQEGNVFSCSVMHEALHNHYTQKSLSLSLGK
light 2: QTVVTQEPSLTVSPGGTVTLTCRSSTGAVTTSNYANWVQQKPGQAPRGLIGGTNKRAPGTPARFSGSLLGGKAALTLSGVQPEDEAEYYCALWYSNLWVFGGGTKLTVLGQPKAAPSVTLFPPSSEELQANKATLVCLISDFYPGAVTVAWKADSSPVKAGVETTTPSKQSNNKYAASSYLSLTPEQWKSHRSYSCQVTHEGSTVEKTVAPTECS
B3: C3CB97 (bispecific antibody, human IgG4 S228P, lambda, F234A L235A)
heavy 1: not shown
light 1: B1 light
heavy 2: QVQLQQSGPRLVRPSQTLSLTCAISGDSVFNNNAAWSWIRQSPSRGLEWLGRTYYRSKWLYDYAVSVKSRITVNPDTSRNQFTLQLNSVTPEDTALYYCARGYSSSFDYWGQGTLVTVSSASTKGPSVFPLAPCSRSTSESTAALGCLVKDYFPEPVTVSWNSGALTSGVHTFPAVLQSSGLYSLSSVVTVPSSSLGTKTYTCNVDHKPSNTKVDKRVESKYGPPCPPCPAPEAAGGPSVFLFPPKPKDTLMISRTPEVTCVVVDVSQEDPEVQFNWYVDGVEVHNAKTKPREEQFNSTYRVVSVLTVLHQDWLNGKEYKCKVSNKGLPSSIEKTISKAKGQPREPQVYTLPPSQEEMTKNQVSLTCLVKGFYPSDIAVEWESNGQPENNYKTTPPVLDSDGSFLLYSKLTVDKSRWQEGNVFSCSVMHEALHNHYTQKSLSLSLGK
light 2: QSALTQPASVSGSPGQSITISCTGTSSNIGTYKFVSWYQQHPDKAPKVLLYEVSKRPSGVSSRFSGSKSGNTASLTISGLQAEDQADYHCVSYAGSGTLLFGGGTKLTVLGQPKAAPSVTLFPPSSEELQANKATLVCLISDFYPGAVTVAWKADSSPVKAGVETTTPSKQSNNKYAASSYLSLTPEQWKSHRSYSCQVTHEGSTVEKTVAPTECS
B4: C3CB12 (bispecific antibody, human IgG4 S228P, lambda, F234A L235A)
heavy 1: not shown
light 1: SYELTQPPSVSVSPGQTASITCSGNKLGAKFASWYQQKPGQSPVLVIYQDNKRPSGIPERFSGSNSGNTATLTISGTQAVDEADYYCQAWDSSTVVFGGGTKLTVLGQPKAAPSVTLFPPSSEELQANKATLVCLISDFYPGAVTVAWKADSSPVKAGVETTTPSKQSNNKYAASSYLSLTPEQWKSHRSYSCQVTHEGSTVEKTVAPTECS
heavy 2: B2 heavy 2
light 2: B2 light 2
B5: C3CB103 (bispecific antibody, human IgG4 S228P, lambda, F234A L235A)
heavy 1: not shown
light 1: B4 light 1 with N25D, A29D, F31Y, S33C, N51G, S66F, T69K, V80M, S92R, S93N
heavy 2: B3 heavy 2
light 2: B3 light 2
B6: C3CB88 (bispecific antibody, human IgG4 S228P, kappa, lambda, F234A L235A)
heavy 1: not shown
light 1: not shown
heavy 2: B2 heavy 2
light 2: B2 light 2
B7: C3CB102 (bispecific antibody, human IgG4 S228P, lambda, F234A L235A)
heavy 1: not shown
light 1: B4 light 1
heavy 2: B3 heavy 2
light 2: B3 light 2
B8: C33B912.CLF (antibody, human IgG1, kappa, V domains shown)
VH: EVQLVESGGGLVQPGRSLRLSCAASGFTFDDYAMHWVRQAPGKGLEWVSGIGWSGGSIVYADSVKGRFKISRDNAKNSLYLQMNSLRAEDTALYYCAKDSPYGDFFDYWGQGTLVTVSS
VL: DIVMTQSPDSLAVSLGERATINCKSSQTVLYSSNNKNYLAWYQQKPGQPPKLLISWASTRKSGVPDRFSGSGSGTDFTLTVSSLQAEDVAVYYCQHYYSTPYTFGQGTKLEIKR
modifications: IgG1 low fucose Fc glycan

Tests used:
Test in all cases: cell-based or functional assay
[1] = molecular target: T1, human CD33 (human, UniProt P20138 18-364)
T1 sequence (P20138 18-364 limits assumed): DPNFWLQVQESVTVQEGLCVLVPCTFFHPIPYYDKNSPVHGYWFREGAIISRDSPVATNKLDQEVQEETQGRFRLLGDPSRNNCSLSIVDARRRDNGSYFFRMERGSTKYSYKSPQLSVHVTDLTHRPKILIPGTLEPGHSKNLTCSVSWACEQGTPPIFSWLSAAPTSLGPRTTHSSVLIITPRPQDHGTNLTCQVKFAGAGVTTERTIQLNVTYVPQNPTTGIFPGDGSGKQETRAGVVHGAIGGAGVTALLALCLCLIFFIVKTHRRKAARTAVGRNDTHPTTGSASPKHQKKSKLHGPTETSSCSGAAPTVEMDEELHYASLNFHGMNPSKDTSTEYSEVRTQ

[2] = molecular target: T1, human CD33; remark: listed apart in the source
[3] = molecular target: T1, human CD33; remark: listed apart in the source
[4] = molecular target: T1, human CD33; remark: listed apart in the source
[5] = molecular target: cyno CD33 (cynomolgus monkey)
Chain of cyno CD33 (cynomolgus monkey) (chain, as listed by the source limits assumed): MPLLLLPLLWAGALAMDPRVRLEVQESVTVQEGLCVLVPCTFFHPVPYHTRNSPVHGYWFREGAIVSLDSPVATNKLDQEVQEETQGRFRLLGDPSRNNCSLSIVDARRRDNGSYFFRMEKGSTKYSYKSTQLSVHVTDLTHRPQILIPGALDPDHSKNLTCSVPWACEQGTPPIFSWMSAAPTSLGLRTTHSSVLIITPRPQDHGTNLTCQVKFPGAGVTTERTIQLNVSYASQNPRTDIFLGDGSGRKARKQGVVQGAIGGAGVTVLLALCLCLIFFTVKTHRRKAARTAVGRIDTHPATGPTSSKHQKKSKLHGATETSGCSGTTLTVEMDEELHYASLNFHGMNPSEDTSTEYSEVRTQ

| Binder | Cytotoxicity EC50 (nM), T-cell mediated cytotoxicity of MOLM-13 [2] | Primary AML Cell Killing EC50 (nM), ex vivo AML patient whole blood [3] | also measured |
| --- | --- | --- | --- |
| B1 | – | – | EC50 ADCC (nM), MOLM-13 target cells, human NK effector cells [1]: 0.023 nM; EC50 ADCC (nM), MV4-11 target cells, human NK effector cells [1]: 0.113 nM |
| B2 | 0.0213 nM | 0.332 nM | – |
| B3 | – | ~0.232 nM | – |
| B4 | 0.268 nM | 2.63 nM | – |
| B5 | – | 4.19 nM | – |
| B6 | 0.11 nM | 0.672 nM | CD33^+ CD14^+ Killing EC50 (nM), ex vivo human whole blood [4]: 0.506 nM; MOLM13 Killing EC50 (nM), ex vivo human whole blood [4]: 0.671 nM; CD33^+ CD14^+ Killing EC50 (nM), ex vivo cynomolgus whole blood [5]: 0.89 nM; T cell activation EC50 (nM), ex vivo cynomolgus whole blood [5]: 0.02 nM |
| B7 | – | 4.97 nM | – |
| B8 | – | – | EC50 ADCC (nM), MOLM-13 target cells, human NK effector cells [1]: 0.292 nM; EC50 ADCC (nM), MV4-11 target cells, human NK effector cells [1]: 2.01 nM |
